Measured values published in patent US20150037348A1 (AbbVie / Abbott, published 2015).

T1: human IL-12 (human, UniProt P29459 23-219; P29460 23-328)
T1 construct: recombinant human IL-12 heterodimer (p35/p40, disulfide-linked); also called hIL-12; rhIL-12
T1 sequence (looked up) 1: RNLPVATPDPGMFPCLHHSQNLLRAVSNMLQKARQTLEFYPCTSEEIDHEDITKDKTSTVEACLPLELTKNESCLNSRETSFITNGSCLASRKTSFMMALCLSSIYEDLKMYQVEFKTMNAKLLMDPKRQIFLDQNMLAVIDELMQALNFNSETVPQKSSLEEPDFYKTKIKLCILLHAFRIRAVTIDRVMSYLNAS
T1 sequence (looked up) 2: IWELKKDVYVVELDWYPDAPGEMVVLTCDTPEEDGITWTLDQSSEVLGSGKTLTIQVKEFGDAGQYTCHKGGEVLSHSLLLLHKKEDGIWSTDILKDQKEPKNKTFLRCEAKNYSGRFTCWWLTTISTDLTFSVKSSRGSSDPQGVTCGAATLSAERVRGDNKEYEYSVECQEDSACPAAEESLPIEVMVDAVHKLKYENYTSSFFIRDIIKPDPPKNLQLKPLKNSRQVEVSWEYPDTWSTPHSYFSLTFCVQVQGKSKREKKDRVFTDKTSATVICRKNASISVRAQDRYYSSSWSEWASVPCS

T2: recombinant human IL-12 (rhIL-12) (human, UniProt P29459 23-219; P29460 23-328)
T2 construct: disulfide-linked p35/p40 heterodimer (p70); also called IL-12 p70; rec. human IL12
T2 sequence (looked up) 1: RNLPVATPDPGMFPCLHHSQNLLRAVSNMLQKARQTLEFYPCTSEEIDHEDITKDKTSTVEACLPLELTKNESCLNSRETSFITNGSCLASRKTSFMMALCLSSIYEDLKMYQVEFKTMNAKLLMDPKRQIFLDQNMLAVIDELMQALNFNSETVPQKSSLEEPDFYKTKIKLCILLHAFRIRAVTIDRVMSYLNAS
T2 sequence (looked up) 2: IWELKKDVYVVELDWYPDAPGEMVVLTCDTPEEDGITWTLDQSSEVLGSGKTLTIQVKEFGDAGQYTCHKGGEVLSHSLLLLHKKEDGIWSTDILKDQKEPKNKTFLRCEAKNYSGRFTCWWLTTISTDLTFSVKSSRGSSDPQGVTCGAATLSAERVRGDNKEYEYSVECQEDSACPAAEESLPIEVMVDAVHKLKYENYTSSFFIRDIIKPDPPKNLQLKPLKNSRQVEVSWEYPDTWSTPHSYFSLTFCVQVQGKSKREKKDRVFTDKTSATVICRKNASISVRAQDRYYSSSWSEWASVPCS

B1: 78-35 (scFv, V domains shown)
VH: QVQLVQSGGGVVQPGRSLRLSCAASGFTFSSYGMHWVRQAPGKGLEWVAFIRYDGSNKYYADSVKGRFTISRDNSKNTLYLQMKSLRAEDTAVYYCTTSGSYDYWGQGTMVTVSS
VL: SYVLTQPPSVSGTPGQRVTISCSGGRSNIGSNTVKWYQQLPGTAPKLLIYGNDQRPSGVPDRFSGSKSGTSASLAITGVQAEDEADYYCQSYDSSLTGSRVFGTGTKVTVL
notes: scFv
B2: 73-B7 (scFv, V domains shown)
VH: QVQLVQSGGGVVQPGRSLRLSCAASGFTFSSYGMHWVRQAPGKGLEWVAFIRYDGSNKYYADSVKGRFTISRDNSKNTLYLQMKSLRAEDTAVYYCTTHGSQDNWGQGTMVTVSS
VL: SYVLTQPPSVSGTPGQRVTISCSGGRSNIGSNTVKWYQQLPGTAPKLLIYGNDQRPSGVPDRFSGSKSGTSASLAITGVQAEDEADYYCQSYDSSLRGSRVFGTGTKVTVLG
B3: 149-9 (scFv, V domains shown)
VH: QVQLVQSGGGVVQPGRSLRLSCAASGFTFSSYGMHWVRQAPGKGLEWVAFIRYDGSNKYYADSVKGRFTISRDNSKNTLYLQMKSLRAEDTAVYYCKTHGSHDNWGHGTMVTVSS
VL: SYVLTQPPSVSGTPGQRVTISCSGGRSNIGSNTVKWYQQLPGTAPKLLIYGNDQRPSGVPDRFSGSKSGTSASLAITGVQAEDEADYYCQSYERGFTGSMVFGTGTKVTVL
notes: scFv
B4: L3.3R3M-B3 (scFv, V domains shown)
VH: QVQLVQSGGGVVQPGRSLRLSCAASGFTFSSYGMHWVRQAPGKGLEWVAFIRYDGSNKYYADSVKGRFTISRDNSKNTLYLQMKSLRAEDTAVYYCKTHGSHDNWGQGTMVTVSS
VL: SYVLTQPPSVSGTPGQRVTISCSGGRSNIGSNTVKWYQQLPGTAPKLLIYGNDQRPSGVPDRFSGSKSGTSASLAITGVQAEDEADYYCQSYDRGFTGSMVFGTGTKVTVL
notes: scFv clone
B5: L3.3R3M-H6 (scFv, V domains shown)
VH: QVQLVQSGGGVVQPGRSLRLSCAASGFTFSSYGMHWVRQAPGKGLEWVAFIRYDGSNKYYADSVKGRFTISRDNSKNTLYLQMKSLRAEDTAVYYCKTHGSHDNWGQGTMVTVSS
VL: SYVLTQPPSVSGTPGQRVTISCSGGRSNIGSNTVKWYQQLPGTAPKLLIYGNDQRPSGVPDRFSGSKSGTSASLAITGVQAEDEADYYCQSYDRGNWPNSNFGTGTKVTVL
notes: scFv clone
B6: A4 (scFv, V domains shown)
VH: QVQLVQSGGGVVQPGRSLRLSCAASGFTFSSYGMHWVRQAPGKGLEWVAFIRYDGSNKYYADSVKGRFTISRDNSKNTLYLQMKSLRAEDTAVYYCKTHGSHDNWGQGTMVTVSS
VL: SYVLTQPPSVSGTPGQRVTISCSGGRSNIGSNTVKWYQQLPGTAPKLLIYGNDQRPSGVPDRFSGSKSGTSASLAITGVQAEDEADYYCQSYDRGRNPALTFGTGTKVTVL
notes: scFv clone
B7: 170-25 (scFv, V domains shown)
VH: QVQLVQSGGGVVQPGRSLRLSCAASGFTFSSYGMHWVRQAPGKGLEWVAFIRYDGSNKYYADSVKGRFTISRDNSKNTLYLQMKSLRAEDTAVYYCTTHGSQDTWGQGTMVTVSS
VL: SYVLTQPPSVSGTPGQRVTISCSGGRSNIGSNTVKWYQQLPGTAPKLLIYGNDQRPSGVPDRFSGSKSGTSASLAITGVQAEDEADYYCQSYDSSLRGSRVFGTGTKVTVL
notes: scFv
B8: 101-11 IgG1 (antibody, V domains shown)
VH: QVQLVQSGGGVVQPGRSLRLSCAASGFTFSSYGMHWVRQAPGKGLEWVAFIRYDGSNKYYADSVKGRFTISRDNSKNTLYLQMKSLRAEDTAVYYCTTHGSHDNWGQGTMVTVSS
VL: SYVLTQPPSVSGTPGQRVTISCSGGRSNIGSNTVKWYQQLPGTAPKLLIYGNDQRPSGVPDRFSGSKSGTSASLAITGVQAEDEADYYCQSYDRGFTGSRVFGTGTKVTVL
notes: IgG1
B9: L3.3R3M-G7 (scFv, V domains shown)
VH: QVQLVQSGGGVVQPGRSLRLSCAASGFTFSSYGMHWVRQAPGKGLEWVAFIRYDGSNKYYADSVKGRFTISRDNSKNTLYLQMKSLRAEDTAVYYCKTHGSHDNWGQGTMVTVSS
VL: SYVLTQPPSVSGTPGQRVTISCSGGRSNIGSNTVKWYQQLPGTAPKLLIYGNDQRPSGVPDRFSGSKSGTSASLAITGVQAEDEADYYCQSYDRGFTGSMVFGTGTKVTVL
notes: scFv clone
B10: L3.3R3M-G8 (scFv, V domains shown)
VH: QVQLVQSGGGVVQPGRSLRLSCAASGFTFSSYGMHWVRQAPGKGLEWVAFIRYDGSNKYYADSVKGRFTISRDNSKNTLYLQMKSLRAEDTAVYYCKTHGSHDNWGQGTMVTVSS
VL: SYVLTQPPSVSGTPGQRVTISCSGGRSNIGSNTVKWYQQLPGTAPKLLIYGNDQRPSGVPDRFSGSKSGTSASLAITGVQAEDEADYYCQSYDRGSYPALRFGTGTKVTVL
notes: scFv clone
B11: 170-23 (scFv, V domains shown)
V domain 1: QVQLVQSGGGVVQPGRSLRLSCAASGFTFSSYGMHWVRQAPGKGLEWVAFIRYDGSNKYYADSVKGRFTISRDNSKNTLYLQMKSLRAEDTAVYYCTTHGSHDNWGQGTMVTVSS
V domain 2: SYVLTQPPSVSGTPGQRVTISCSGGRSNIGSNTVKWYQQLPGTAPKLLIYGNDQRPSGVPDRFSGSKSGTSASLAITGVQAEDEADYYCQSYDRGFTGARVWGTGTKVTVL
notes: scFv
B12: 136-24 (scFv, V domains shown)
VH: QVQLVQSGGGVVQPGRSLRLSCAASGFTFSSYGMHWVRQAPGKGLEWVAFIRYDGSNKYYADSVKGRFTISRDNSKNTLYLQMKSLRAEDTAVYYCTTHGSHDNWGQGTMVTVSS
VL: SYVLTQPPSVSGTPGQRVTISCSGGRSNIGSNTVKWYQQLPGTAPKLLIYGNDQRPSGVPDRFSGSKSGTSASLAITGVQAEDEADYYCQSYDNAVTASKVFGTGTKVTVL
notes: scFv
B13: L3.3R3M-H11 (scFv, V domains shown)
VH: QVQLVQSGGGVVQPGRSLRLSCAASGFTFSSYGMHWVRQAPGKGLEWVAFIRYDGSNKYYADSVKGRFTISRDNSKNTLYLQMKSLRAEDTAVYYCKTHGSHDNWGQGTMVTVSS
VL: SYVLTQPPSVSGTPGQRVTISCSGGRSNIGSNTVKWYQQLPGTAPKLLIYGNDQRPSGVPDRFSGSKSGTSASLAITGVQAEDEADYYCQSYDRGMIPALTFGTGTKVTVL
notes: scFv clone
B14: A5 (scFv, V domains shown)
VH: QVQLVQSGGGVVQPGRSLRLSCAASGFTFSSYGMHWVRQAPGKGLEWVAFIRYDGSNKYYADSVKGRFTISRDNSKNTLYLQMKSLRAEDTAVYYCKTHGSHDNWGQGTMVTVSS
VL: SYVLTQPPSVSGTPGQRVTISCSGGRSNIGSNTVKWYQQLPGTAPKLLIYGNDQRPSGVPDRFSGSKSGTSASLAITGVQAEDEADYYCQSYDRGTHPSMLFGTGTKVTVL
notes: scFv clone
B15: A12 (scFv, V domains shown)
VH: QVQLVQSGGGVVQPGRSLRLSCAASGFTFSSYGMHWVRQAPGKGLEWVAFIRYDGSNKYYADSVKGRFTISRDNSKNTLYLQMKSLRAEDTAVYYCKTHGSHDNWGQGTMVTVSS
VL: SYVLTQPPSVSGTPGQRVTISCSGGRSNIGSNTVKWYQQLPGTAPKLLIYGNDQRPSGVPDRFSGSKSGTSASLAITGVQAEDEADYYCQSYDRGTTPRPMFGTGTKVTVL
notes: scFv clone

How the values were obtained:
human IL-12 [1] = molecular target: T1, human IL-12; experiment: SPR (BIAcore), IL-12 chip
From the text: The system utilizes the optical properties of SPR to detect alterations in protein concentrations within a dextran biosensor matrix. Proteins are covalently bound to the dextran matrix at known concentrations. […] To determine the off rate (koff), on rate (kₒₙ), association rate (Ka) and dissociation rate (Kd) constants, BIAcore kinetic evaluation software (version 2.1) was used.

human IL-12 [2] = molecular target: T1, human IL-12; experiment: RB assay: 125I-hIL-12 binding to PHA blasts
Procedure: (§1) PHA blast cells isolated as described above, were washed once and resuspended in binding buffer to a cell density of 2×10⁷ cells/ml. […] The cell pellet was examined for cell bound radioactivity using a gamma counter. […] Incubations were carried out in duplicate.

[3] = molecular target: T2, recombinant human IL-12 (rhIL-12); experiment: BIAcore SPR, IL-12 on chip
[4] = molecular target: T2, recombinant human IL-12 (rhIL-12); experiment: receptor binding assay, 125I-hIL-12 on PHA blasts
Procedure: as §1

Binder	koff (human IL-12 [1])	IC50 (human IL-12 [2])	koff [3]	IC50 [4]
B1	0.0499 s⁻¹	400 nM		
B2	0.0025 s⁻¹	7 nM		
B3	0.00354 s⁻¹	0.18 nM		
B4			5.51 s⁻¹	
B5			5.69 s⁻¹	
B6			0.00063 s⁻¹	0.25 nM
B7	0.0005 s⁻¹	0.05 nM		
B8		1.6 nM		
B9			4.24 s⁻¹	
B10			5.55 s⁻¹	
B11	0.001 s⁻¹	0.2 nM		
B12	0.00089 s⁻¹	1 nM		
B13			3.95 s⁻¹	
B14			0.00045 s⁻¹	0.066 nM
B15			0.000557 s⁻¹	0.25 nM
